Measured values: US20080160015A1

Key:
[1] = target: human monoclonal anti-C1 domain of Factor VIII inhibitory antibody RHD5; assay: competition ELISA: 18B6 at 6.25 µg/ml with RHD5 2 µg/ml, RHD5 binding to coated recFVIII detected
[2] = target: human monoclonal anti-C1 domain of Factor VIII inhibitory antibody RHD5; assay: competition ELISA: 18B6 at 50 µg/ml with RHD5 2 µg/ml, RHD5 binding to coated recFVIII detected
[3] = target: human monoclonal anti-C1 domain of Factor VIII inhibitory antibody RHD5; assay: competition ELISA: 18B6 at 0.39 µg/ml with RHD5 2 µg/ml, RHD5 binding to coated recFVIII detected
[4] = target: human monoclonal anti-C1 domain of Factor VIII inhibitory antibody RHD5; assay: competition ELISA: 18B6 at 0.195 µg/ml with RHD5 2 µg/ml, RHD5 binding to coated recFVIII detected
[5] = target: human monoclonal anti-C1 domain of Factor VIII inhibitory antibody RHD5; assay: SPR (BIAcore), RHD5 immobilized on CM5, 18B6 infused
[6] = target: human monoclonal anti-C1 domain of Factor VIII inhibitory antibody RHD5; assay: competition ELISA: supernatant preincubated with RHD5 (0.6 µg/ml), RHD5 binding to coated recFVIII detected
[7] = target: human monoclonal anti-C1 domain of Factor VIII inhibitory antibody RHD5; assay: competition ELISA: 18B6 at 3.12 µg/ml with RHD5 2 µg/ml, RHD5 binding to coated recFVIII detected
[8] = target: human monoclonal anti-C1 domain of Factor VIII inhibitory antibody RHD5; assay: competition ELISA: 18B6 at 0.098 µg/ml with RHD5 2 µg/ml, RHD5 binding to coated recFVIII detected
[9] = target: human monoclonal anti-C1 domain of Factor VIII inhibitory antibody RHD5; assay: competition ELISA: 18B6 at 1.56 µg/ml with RHD5 2 µg/ml, RHD5 binding to coated recFVIII detected
[10] = target: human monoclonal anti-C1 domain of Factor VIII inhibitory antibody RHD5; assay: competition ELISA: 18B6 at 25 µg/ml with RHD5 2 µg/ml, RHD5 binding to coated recFVIII detected
[11] = target: human monoclonal anti-C1 domain of Factor VIII inhibitory antibody RHD5; assay: competition ELISA: 18B6 at 0.78 µg/ml with RHD5 2 µg/ml, RHD5 binding to coated recFVIII detected
[12] = target: human monoclonal anti-C1 domain of Factor VIII inhibitory antibody RHD5; assay: cell-based or functional assay
[13] = target: human monoclonal anti-C1 domain of Factor VIII inhibitory antibody RHD5; assay: competition ELISA: 18B6 at 12.5 µg/ml with RHD5 2 µg/ml, RHD5 binding to coated recFVIII detected
[14] = target: human monoclonal anti-C1 domain of Factor VIII inhibitory antibody RHD5; assay: competition ELISA: 18B6 with RHD5 2 µg/ml, RHD5 binding to coated recFVIII detected

B1: monoclonal anti-idiotypic antibody 18B6 (antibody, V domains shown)
VH: QVQLQQSGAELAKPGASVKMSCKASGYTFTTYWMHWIKQRPGQDLEWIGYINPTSGYTEYNQNFKDKATLTADKSSSTAYMQLNSLTSEDSAVYFCARSGAYYRYDDAMDSWGQGTSVTVSS
VL: QIVLSQSPAILSASPGEKVTMTCRASSSVSYMNWYQQKPGSSPKPWIYATSNLASGVPARFSGSGSGTSYSLTISRVEAEDAATYYCQQWSSNPPMLTFGAGTKLELK
modifications: mouse IgG1 kappa constant regions
[1]
  Inhibition of binding (%): 96.7%
[2]
  Inhibition of binding (%): 96.1%
[3]
  Inhibition of binding (%): 9.2%
[4]
  Inhibition of binding (%): 0%
[5]
  Kd: 3.4 nM
  koff: 1.45e-05 s⁻¹
  kon: 4260 M⁻¹ s⁻¹
[6]
  Inhibition: Elisa (%): 93.1%
[7]
  Inhibition of binding (%): 94.1%
[8]
  Inhibition of binding (%): 0%
[9]
  Inhibition of binding (%): 90.3%
[10]
  Inhibition of binding (%): 97.2%
[11]
  Inhibition of binding (%): 50.3%
[12]
  Neutralisation (%) of RHD5 (0.4 µg/ml) inhibitory activity, chromogenic FVIII assay, anti-Id at 0.0002 µg/ml: 0%
  Neutralisation (%) of RHD5 (0.4 µg/ml) inhibitory activity, chromogenic FVIII assay, anti-Id at 0.0006 µg/ml: 6.7%
  Neutralisation (%) of RHD5 (0.4 µg/ml) inhibitory activity, chromogenic FVIII assay, anti-Id at 0.00183 µg/ml: 8.9%
  Neutralisation (%) of RHD5 (0.4 µg/ml) inhibitory activity, chromogenic FVIII assay, anti-Id at 0.0055 µg/ml: 6.7%
  Neutralisation (%) of RHD5 (0.4 µg/ml) inhibitory activity, chromogenic FVIII assay, anti-Id at 0.0165 µg/ml: 8.8%
  Neutralisation (%) of RHD5 (0.4 µg/ml) inhibitory activity, chromogenic FVIII assay, anti-Id at 0.049 µg/ml: 11%
  Neutralisation (%) of RHD5 (0.4 µg/ml) inhibitory activity, chromogenic FVIII assay, anti-Id at 0.148 µg/ml: 27.4%
  Neutralisation (%) of RHD5 (0.4 µg/ml) inhibitory activity, chromogenic FVIII assay, anti-Id at 0.44 µg/ml: 54.3%
  Neutralisation (%) of RHD5 (0.4 µg/ml) inhibitory activity, chromogenic FVIII assay, anti-Id at 1.33 µg/ml: 81.2%
  Neutralisation (%) of RHD5 (0.4 µg/ml) inhibitory activity, chromogenic FVIII assay, anti-Id at 4 µg/ml: 89.5%
  Neutralization: functional test (chromogenic FVIII assay, RHD5 1 µg/ml with supernatant, FVIII Kogenate 0.5 U/ml): 100%
  neutralisation of RHD5 inhibitory activity at an equimolar RHD5/18B6 ratio: 50%
[13]
  Inhibition of binding (%): 96.9%
[14]
  inhibition of binding at an equimolar ratio (%): 92%
  molar ratio RHD5/18B6 at 50% inhibition (molar ratio RHD5/18B6): 2.5
